Molecular target: cyclophilin D (CypD, PPIF) with a K133I mutation

In the case of cyclosporine (cyclosporin A) (peptide), the half-maximal inhibition of Ca2+-induced PT pore opening, calcium retention capacity (CRC) assay on isolated liver mitochondria is reported as 40 nM.
